Results on 25 molecules are retold here after PMC9352680, “A comprehensive thermodynamic model for RNA binding by the Saccharomyces cerevisiae Pumilio protein PUF4”.

The term Kd denotes the concentration at which binding is half-saturated. A low value points to a tighter complex.

This series addresses T1, PUF4 RNA-binding domain (Saccharomyces cerevisiae, UniProt P25339 537-888).
T1 sequence: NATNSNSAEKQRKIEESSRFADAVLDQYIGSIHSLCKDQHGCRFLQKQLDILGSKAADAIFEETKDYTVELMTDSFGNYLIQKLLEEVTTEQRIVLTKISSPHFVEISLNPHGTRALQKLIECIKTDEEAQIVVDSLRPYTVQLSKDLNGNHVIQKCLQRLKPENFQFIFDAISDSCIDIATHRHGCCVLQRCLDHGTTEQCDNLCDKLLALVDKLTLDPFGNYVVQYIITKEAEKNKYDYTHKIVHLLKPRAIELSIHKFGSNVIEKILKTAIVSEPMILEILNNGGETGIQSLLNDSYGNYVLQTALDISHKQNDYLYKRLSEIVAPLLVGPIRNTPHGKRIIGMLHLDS
Briefly: Mg; RNA-MaP; 20 mM Na-HEPES pH 7.4, 30 mM KOAc, 0.75 mM MgCl2, 0.1% Tween-20, 5% glycerol, 0.1 mg/mL BSA, 2 mM DTT; 25 C; 0.0125-409.6 nM protein. Conditions: tags: N-His6-TEV cleaved; C-SNAP kept, Cy3B-labelled; label: tethered on chip by stalled RNA polymerase.

B1: Ib_S1_P3E.1_K3.1_C3.1_H3.1_[T1A]_A3.1_[A6G]_F3.1_T3.1 (ssRNA)
RNA: UCUCUUAGUAUGUAUCUCUU
Regarding B1, binding was characterised by a dissociation constant (Kd) of 381 nM.

B2: Ic_S1_P5E.1_K5.1_C5.1_H5.1_A5.1_[T5A]_[T6A]_[A7T]_F5.1_[T9A]_T5.1 (ssRNA)
RNA: UCUCUUUGUAAAUUAAUCUCUU
As to B2, the Kd was 1.57 nM.

B3: Ib_S1_P3E.1_K3.1_C3.1_H3.1_[T1C]_A3.1_[A6T]_F3.1_T3.1 (ssRNA)
RNA: UCUCUUCGUAUUUAUCUCUU
For the molecule B3, the Kd is over 2300 nM.

B4: Ic_S1_P5E.1_K5.1_C5.1_H5.1_A5.1_[T5C]_[A7C]_F5.1_[T9A]_[A10T]_T5.1 (ssRNA)
RNA: UCUCUUUGUACUCUAUUCUCUU
In the case of B4, the Kd was determined as 3.85 nM.

B5: Ic_S1_P5E.1_K5.1_C5.1_H5.1_A5.1_[T5C]_[T6A]_[A7C]_F5.1_[T8A]_[T9C]_[A10C]_T5.1 (ssRNA)
RNA: UCUCUUUGUACACACCUCUCUU
Regarding B5, the Kd worked out at 76.8 nM. Compared with the last molecule, the Kd is about 20-fold higher.

B6: Ic_S1_P5E.1_K5.1_C5.1_H5.1_A5.1_[T5C]_[T6G]_[A7C]_F5.1_[T8C]_[T9C]_T5.1 (ssRNA)
RNA: UCUCUUUGUACGCCCAUCUCUU
Regarding B6, the dissociation constant Kd amounted to 564 nM.

B7: Ic_S1_P5E.1_K5.1_C5.1_H5.1_A5.1_[T5A]_[T6C]_[A7G]_F5.1_[T9C]_[A10T]_T5.1 (ssRNA)
RNA: UCUCUUUGUAACGUCUUCUCUU
Consider B7, for which the Kd is 2100 nM.

B8: Ic_S1_P5E.1_K5.1_C5.1_H5.1_A5.1_[T5A]_[T6C]_[A7T]_F5.1_[T8A]_[A10C]_T5.1 (ssRNA)
RNA: UCUCUUUGUAACUAUCUCUCUU
Regarding B8, binding was characterised by a dissociation constant (Kd) of 113 nM. Compared with the last molecule, the Kd is about 19-fold lower.

B9: Ic_S1_P5E.1_K5.1_C5.1_H5.1_A5.1_[T6A]_[A7T]_F5.1_[T8G]_[T9A]_T5.1 (ssRNA)
RNA: UCUCUUUGUAUAUGAAUCUCUU
In turn, B9 displayed a Kd of 19.4 nM.

B10: Ic_S1_P5E.1_K5.1_C5.1_H5.1_A5.1_[T6C]_F5.1_[T8G]_[T9C]_[A10C]_T5.1 (ssRNA)
RNA: UCUCUUUGUAUCAGCCUCUCUU
The molecule B10 returned a Kd of 918 nM.

B11: Ib_S1_P3E.1_K3.1_C3.1_H3.1_[T1A]_A3.1_[A6C]_F3.1_T3.1 (ssRNA)
RNA: UCUCUUAGUAUCUAUCUCUU
Molecule B11 had a Kd of over 2300 nM.

B12: Ic_S1_P5E.1_K5.1_C5.1_H5.1_A5.1_[T6G]_[A7T]_F5.1_[T8C]_[T9A]_[A10T]_T5.1 (ssRNA)
RNA: UCUCUUUGUAUGUCAUUCUCUU
Take B12: binding was characterised by a dissociation constant (Kd) of 297 nM.

B13: Ic_S1_P5E.1_K5.1_C5.1_H5.1_A5.1_[T5G]_F5.1_[T8A]_[A10T]_T5.1 (ssRNA)
RNA: UCUCUUUGUAGUAAUUUCUCUU
For B13, binding was characterised by a dissociation constant (Kd) of 1270 nM.

B14: Ic_S1_P5E.1_K5.1_C5.1_H5.1_A5.1_[T6A]_[A7T]_F5.1_[T8C]_[T9C]_[A10T]_T5.1 (ssRNA)
RNA: UCUCUUUGUAUAUCCUUCUCUU
B14 yielded a Kd of 24 nM.

B15: Ic_S1_P5E.1_K5.1_C5.1_H5.1_A5.1_[T5A]_[T6C]_[A7G]_F5.1_[T8A]_[A10G]_T5.1 (ssRNA)
RNA: UCUCUUUGUAACGAUGUCUCUU
In turn, B15 gave an equilibrium dissociation constant (Kd) of 1000 nM.

B16: Ic_S1_P5E.1_K5.1_C5.1_H5.1_A5.1_[T5A]_[T6C]_[A7C]_F5.1_[A10T]_T5.1 (ssRNA)
RNA: UCUCUUUGUAACCUUUUCUCUU
Regarding B16, binding was put at a Kd of 49.8 nM.

B17: Ic_S1_P5E.1_K5.1_C5.1_H5.1_A5.1_[T5C]_[T6A]_[A7T]_F5.1_[T9C]_[A10G]_T5.1 (ssRNA)
RNA: UCUCUUUGUACAUUCGUCUCUU
B17: binding was characterised by a dissociation constant (Kd) of 9.95 nM. Against the preceding molecule, the Kd is about 5-fold lower.

B18: Ic_S1_P5E.1_K5.1_C5.1_H5.1_A5.1_[T5C]_[T6C]_[A7C]_F5.1_[T8C]_[T9G]_[A10G]_T5.1 (ssRNA)
RNA: UCUCUUUGUACCCCGGUCUCUU
B18: the Kd was over 2300 nM.

B19: Ic_S1_P5E.1_K5.1_C5.1_H5.1_A5.1_[T6G]_[A7T]_F5.1_[T8A]_[T9A]_T5.1 (ssRNA)
RNA: UCUCUUUGUAUGUAAAUCUCUU
Consider B19, for which the equilibrium dissociation constant (Kd) came to 92.9 nM.

B20: Ic_S1_P5E.1_K5.1_C5.1_H5.1_A5.1_[T5G]_[T6C]_[A7C]_F5.1_[T8C]_[T9A]_[A10T]_T5.1 (ssRNA)
RNA: UCUCUUUGUAGCCCAUUCUCUU
As to B20, binding was put at a Kd of 1530 nM.

B21: Ic_S1_P5E.1_K5.1_C5.1_H5.1_A5.1_[T5C]_[T6A]_F5.1_[T9G]_[A10G]_T5.1 (ssRNA)
RNA: UCUCUUUGUACAAUGGUCUCUU
In turn, B21 had a dissociation constant Kd of 12.5 nM.

B22: Ic_S1_P5E.1_K5.1_C5.1_H5.1_A5.1_[A7C]_F5.1_[T8C]_[A10C]_T5.1 (ssRNA)
RNA: UCUCUUUGUAUUCCUCUCUCUU
The molecule B22 came in with a dissociation constant (Kd) of 132 nM.

B23: Ic_S1_P5E.1_K5.1_C5.1_H5.1_A5.1_[T5A]_[T6C]_[A7T]_F5.1_[T8C]_[T9A]_[A10G]_T5.1 (ssRNA)
RNA: UCUCUUUGUAACUCAGUCUCUU
B23 registered a Kd of 175 nM.

B24: Ic_S1_P5E.1_K5.1_C5.1_H5.1_A5.1_[T6G]_[A7G]_F5.1_[T8C]_[A10C]_T5.1 (ssRNA)
RNA: UCUCUUUGUAUGGCUCUCUCUU
Consider B24, for which the equilibrium dissociation constant (Kd) was over 2300 nM.

B25: Ic_S1_P5E.1_K5.1_C5.1_H5.1_A5.1_[T5C]_[A7C]_F5.1_[T9C]_[A10T]_T5.1 (ssRNA)
RNA: UCUCUUUGUACUCUCUUCUCUU
On to B25, for which binding was characterised by a dissociation constant (Kd) of 295 nM.
